Laboratory results as given in the Human Domainome abundance scans (Beltran et al. 2025).
± gives the uncertainty stated by the source.

B1: PDZ and LIM domain protein 2, residues 284 to 339; numbered along this chain, Q96JY6 (parent)
chain: HTCEKCSTSIANQAVRIQEGRYRHPGCYTCADCGLNLKMRGHFWVGDELYCEKHAR

Variants of: B1
Experiment: abundance fitness (aPCA) (normalised: wild type 0, dead -1); higher = more abundant; growth selection in yeast, the domain comes from the species named
Settings: Homo sapiens

| Variant | abundance fitness |
| --- | --- |
| HTCEKCSTSIANQAVRIQEGRYRHPGCATCADCGLNLKMRGHFWVGDELYCEKHAR | -0.076 ± 0.063 |
| HTCEKCSTSIANQAVRIQEGRYRHPGCVTCADCGLNLKMRGHFWVGDELYCEKHAR | -0.144 ± 0.095 |
| HTCEKCSTSIANQAVRIQEGRYRHPGCWTCADCGLNLKMRGHFWVGDELYCEKHAR | 0.053 ± 0.16 |
| HTCEKCSTSIANQAVRIQEGRYRHPGCITCADCGLNLKMRGHFWVGDELYCEKHAR | -0.452 ± 0.2 |
| HTCEKCSTSIANQAVRIQEGRYRHPGCRTCADCGLNLKMRGHFWVGDELYCEKHAR | -0.473 ± 0.06 |
| HTCEKCSTSIANQAVRIQEGRYRHPGCTTCADCGLNLKMRGHFWVGDELYCEKHAR | 0.116 ± 0.11 |
| HTCEKCSTSIANQAVRIQEGRYRHPGCDTCADCGLNLKMRGHFWVGDELYCEKHAR | -0.772 ± 0.23 |
| HTCEKCSTSIANQAVRIQEGRYRHYGCYTCADCGLNLKMRGHFWVGDELYCEKHAR | -0.414 ± 0.27 |
| HTCEKCSTSIANQAVRIQEGRYRHQGCYTCADCGLNLKMRGHFWVGDELYCEKHAR | 0.035 ± 0.083 |
| HTCEKCSTSIANQAVRIQEGRYRHMGCYTCADCGLNLKMRGHFWVGDELYCEKHAR | 0.075 ± 0.085 |
| HTCEKCSTSIANQAVRIQEGRYRHWGCYTCADCGLNLKMRGHFWVGDELYCEKHAR | -0.807 ± 0.17 |
| HTCEKCSTSIANQAVRIQEGRYRHIGCYTCADCGLNLKMRGHFWVGDELYCEKHAR | -0.033 ± 0.062 |
| HTCEKCSTSIANQAVRIQEGRYRHSGCYTCADCGLNLKMRGHFWVGDELYCEKHAR | 0.118 ± 0.068 |
| HTCEKCSTSIANQAVRIQEGRYRHKGCYTCADCGLNLKMRGHFWVGDELYCEKHAR | -0.003 ± 0.092 |
| HTCEKCSTSIANQAVRIQEGRYRHFGCYTCADCGLNLKMRGHFWVGDELYCEKHAR | -0.492 ± 0.1 |
| HTCEKCSTSIANQAVRIQEGRYRHLGCYTCADCGLNLKMRGHFWVGDELYCEKHAR | 0.099 ± 0.054 |
| HTCEKCSTSIANQAVRIQEGRYRHNGCYTCADCGLNLKMRGHFWVGDELYCEKHAR | -0.152 ± 0.14 |
| HTCEKCSTSIANQAVRIQEGRYRHTGCYTCADCGLNLKMRGHFWVGDELYCEKHAR | -0.09 ± 0.095 |
| HTCEKCSTSIANQAVRIQEGRYRHGGCYTCADCGLNLKMRGHFWVGDELYCEKHAR | -0.053 ± 0.091 |
| HTCEKCSTSIANQAVRIQEGRYRHVGCYTCADCGLNLKMRGHFWVGDELYCEKHAR | -0.169 ± 0.072 |
| HTCEKCSTSIANQAVRIQEGRYRHEGCYTCADCGLNLKMRGHFWVGDELYCEKHAR | 0.402 ± 0.082 |
| HTCEKCSTSIANQAVRIQEGRYRHPGCYHCADCGLNLKMRGHFWVGDELYCEKHAR | -0.041 ± 0.09 |
| HTCEKCSTSIANQAVRIQEGRYRHPGCYICADCGLNLKMRGHFWVGDELYCEKHAR | -0.004 ± 0.1 |
| HTCEKCSTSIANQAVRIQEGRYRHPGCYLCADCGLNLKMRGHFWVGDELYCEKHAR | -0.117 ± 0.081 |

| Variant | abundance fitness |
| --- | --- |
| HTCEKCSTSIANQAVRIQEGRYRHPGCYSCADCGLNLKMRGHFWVGDELYCEKHAR | -0.092 ± 0.081 |
| HTCEKCSTSIANQAVRIQEGRYRHPGCYWCADCGLNLKMRGHFWVGDELYCEKHAR | -0.758 ± 0.12 |
| HTCEKCSTSIANQAVRIQEGRYRHPGCYVCADCGLNLKMRGHFWVGDELYCEKHAR | -0.309 ± 0.076 |
| HTCEKCSTSIANQAVRIQEGRYRHPGCYPCADCGLNLKMRGHFWVGDELYCEKHAR | -0.767 ± 0.28 |
| HTCEKCSTSIANQAVRIQEGRYRHPGCYGCADCGLNLKMRGHFWVGDELYCEKHAR | -0.198 ± 0.067 |
| HTCEKCSTSIANQAVRIQEGRYRHPGCYECADCGLNLKMRGHFWVGDELYCEKHAR | -0.455 ± 0.15 |
| HTCEKCSTSIANQAVRIQEGRYRHPGCYYCADCGLNLKMRGHFWVGDELYCEKHAR | -0.17 ± 0.065 |
| HTCEKCSTSIANQAVRIQEGRYRHPGCYNCADCGLNLKMRGHFWVGDELYCEKHAR | -0.177 ± 0.15 |
| HTCEKCSTSIANQAVRIQEGRYRHPGCYACADCGLNLKMRGHFWVGDELYCEKHAR | -0.103 ± 0.11 |
| HTCEKCSTSIANQAVRIQEGRYRHPGCYDCADCGLNLKMRGHFWVGDELYCEKHAR | 0.216 ± 0.14 |
| HTCEKCSTSIANQAVRIQEGRYRHPGCYRCADCGLNLKMRGHFWVGDELYCEKHAR | -0.261 ± 0.057 |
| HTCEKCSTSIANQAVRIQEGRYRHPGCYFCADCGLNLKMRGHFWVGDELYCEKHAR | -0.194 ± 0.18 |
| HTCEKCSTSIANQAVRIQEGRYRHPGCYMCADCGLNLKMRGHFWVGDELYCEKHAR | -0.354 ± 0.16 |
| HTCEKCSTSIANQAVRIQEGRYRHPGCYCCADCGLNLKMRGHFWVGDELYCEKHAR | -0.23 ± 0.064 |
| HTCEKCSTSIANQAVRIQEGRYRHPGCYTIADCGLNLKMRGHFWVGDELYCEKHAR | -1.06 ± 0.36 |
| HTCEKCSTSIANQAVRIQEGRYRHPGCYTGADCGLNLKMRGHFWVGDELYCEKHAR | -0.618 ± 0.12 |
| HTCEKCSTSIANQAVRIQEGRYRHPGCYTLADCGLNLKMRGHFWVGDELYCEKHAR | -1.03 ± 0.14 |
| HTCEKCSTSIANQAVRIQEGRYRHPGCYTAADCGLNLKMRGHFWVGDELYCEKHAR | -1.01 ± 0.082 |
| HTCEKCSTSIANQAVRIQEGRYRHPGCYTEADCGLNLKMRGHFWVGDELYCEKHAR | -0.834 ± 0.075 |
| HTCEKCSTSIANQAVRIQEGRYRHPGCYTNADCGLNLKMRGHFWVGDELYCEKHAR | -0.788 ± 0.35 |
| HTCEKCSTSIANQAVRIQEGRYRHPGCYTHADCGLNLKMRGHFWVGDELYCEKHAR | -0.669 ± 0.47 |
| HTCEKCSTSIANQAVRIQEGRYRHPGCYTKADCGLNLKMRGHFWVGDELYCEKHAR | -1.13 ± 0.38 |
| HTCEKCSTSIANQAVRIQEGRYRHPGCYTMADCGLNLKMRGHFWVGDELYCEKHAR | -0.712 ± 0.13 |
